In US20160304573A1, “FIBROMODULIN PEPTIDE” (The Regents of the University of California, priority 2010, published 2016):

Legend:
Rat-2 cells [1] = assay: Rat-2 cell migration by scratching method; format: cell-based
Description: 1×10^6 cell/well Rat-2 cells were seeded in 6-well plated with 3 ml DMEM-10% FBS. After 6 hours for adhesion, fresh DMEM-0.5% FBS medium was changed for serum-starving overnight. After pre-warmed DMEM rinsing, four wounds (each 1 mm wide; two horizontal and two vertical) were scratched employing a 1-ml tip for each treatment group. Cells were rinsed by DMEM for three times, followed by incubation with treatment medium [DMEM-0.5 FBS containing 100 pM (2.5 ng/ml) TGF-β1 (SEQ ID NO:64) or -β3 (SEQ ID NO:66) w/o 200 nM (11.2 μg/ml) FMOD (SEQ ID NO:1)] for 24 hours. Photos were captured at both 0-h and 24-h after the scratching. The unclosed distance was measured and quantified as an average gap (A) and migration index (B). Similar results were reproduced in four independent experiments. The scale bar in (A) equal to 100 The asterisks in (B) present P<0.05.
(§1) Similar to FMOD (whole protein), the effect of FMOD peptides and/or TGF-β on cell migration was also evaluated by scratching method (FIGS. 18C and 25D). At the same time, cell migration/invasion in Matrigel was documented at 100× magnificent after 24 hour treatment and quantitated using DAPI nuclear staining (100 rather than 200× magnification was used because one group's invasion is quite low) (see the results in FIG. 20A and DAPI pictures in FIG. 20B). Passage 18 Rat-2 cells (20,000 cells/well) were used for the test under the treatment of 100 pM TGF-β1 (SEQ ID NO:64)/133 (SEQ ID NO:66) with/without 200 nM FMOD-F07-40C in DMEM-0.5% FBS.

Rat-2 cells [2] = assay: Rat-2 cell migration/invasion in Matrigel, DAPI nuclear staining; format: cell-based
Description: Cell migration/invasion in Matrigel was documented at 200× magnificent after 24 hour treatment and quantitated using DAPI nuclear staining (results shown in FIG. 19A and repeat results in FIGS. 26B and 26C; DAPI pictures are shown in FIG. 19D).
as §1
Passage 18 Rat-2 cells (20,000 cells/well) were used for the test under the treatment of 100 pM TGF-β1/β3 with/without 200 nM FMOD-F06-40C in DMEM-0.5% FBS (FIG. 20C).

B1: FMOD: recombinant human fibromodulin whole protein (SEQ ID NO:1) produced in CHO-K1 (protein, listed as Homo sapiens)
chain: MQWTSLLLLAGLFSLSQAQYEDDPHWWFHYLRSQQSTYYDPYDPYPYETYEPYPYGVDEGPAYTYGSPSPPDPRDCPQECDCPPNFPTAMYCDNRNLKYLPFVPSRMKYVYFQNNQITSIQEGVFDNATGLLWIALHGNQITSDKVGRKVFSKLRHLERLYLDHNNLTRMPGPLPRSLRELHLDHNQISRVPNNALEGLENLTALYLQHNEIQEVGSSMRGLRSLILLDLSYNHLRKVPDGLPSALEQLYMEHNNVYTVPDSYFRGAPKLLYVRLSHNSLTNNGLASNTFNSSSLLELDLSYNQLQKIPPVNTNLENLYLQGNRINEFSISSFCTVVDVVNFSKLQVLRLDGNEIKRSAMPADAPLCLRLASLIEI
Rat-2 cells [1]; 200 nM combined with 100 pM TGF-β1, 24 hours
  cell migration, scratch: induced significant migration
Rat-2 cells [1]; 200 nM combined with 100 pM TGF-β3, 24 hours
  cell migration, scratch: decreased TGF-β3 mediated inhibition of migration
Rat-2 cells [1]; alone (200 nM FMOD or 100 pM TGF-β), 24 hours
  cell migration, scratch: induced Rat-2 minimal migration
Rat-2 cells [2]; 200 nM combined with 100 pM TGF-β1, 24 hour treatment
  cell migration/invasion in Matrigel: induced significant migration
Rat-2 cells [2]; 200 nM combined with 100 pM TGF-β3, 24 hour treatment
  cell migration/invasion in Matrigel: decreased TGF-β3 mediated inhibition of migration
Rat-2 cells [2]; alone (200 nM FMOD or peptide, or 100 pM TGF-β), 24 hour treatment
  cell migration/invasion in Matrigel: induced Rat-2 moderate migration
